From the Human Domainome abundance scans (Beltran et al. 2025)

B1: Neutrophil cytosol factor 2, residues 456 to 514; numbered along this chain, P19878 (parent)
chain: LKKGSQVEALFSYEATQPEDLEFQEGDIILVLSKVNEEWLEGECKGKVGIFPKVFVEDC

Variants of: B1
Assay: abundance fitness (aPCA) (normalised: wild type 0, dead -1); higher = more abundant; growth selection in yeast, the domain comes from the species named
Settings: Homo sapiens

Abundance fitness of substitutions, site by site:
L32: Y -0.249 | C -0.428 | D -0.054 | I -0.06 | V -0.297 | K 0.194 | A -0.297 | M -0.532 | R 0.564 | N 0.304 | H 0.166 | E -0.299 | T 0.325 | P -0.146 | F -0.118 | S -0.069 | Q -0.143
G26: L -0.339 | S -0.457 | Y -1.03 | I -0.807 | V -0.407 | T -0.881 | R -0.464 | D -0.683 | E -0.473 | M -0.103 | K 0.016 | N -0.517 | W -0.809 | H -0.398
K34: A -0.359 | Q -0.215 | V 0.467 | N -0.287 | F -0.459 | R -0.47 | M -0.326 | L -0.436 | E 0.466 | G -0.822 | S -0.37 | I 0.456 | H 0.059 | T 0.4 | P -0.853 | C -0.242 | D -0.026 | Y -0.589 | W -0.437
D27: H -0.488 | V -0.969 | I -0.179 | K -0.365 | E -0.933 | T -0.695 | Q -0.212 | C -0.301 | F -0.493 | P -0.783 | Y -0.613 | R -0.323 | M -0.377 | A -0.142 | W -0.674 | L -0.28 | S -0.666
E25: V -0.043 | S -0.239 | K 0.711 | D -0.9 | N -0.015 | W -0.78 | M -0.264 | C -0.275 | G -0.201 | I -0.68 | H 0.447 | L -0.731 | P -0.89 | T 0.035
S33: P -0.554 | T -0.289 | D 0.4 | N 0.147 | W -0.366 | F -0.291 | E -0.786 | C -0.474 | R 0.59 | H -0.596 | V -0.091 | K 0.213 | Y -0.55 | Q -0.111 | I -0.34 | G 0.378 | M -0.677
T16: I -0.926 | F -0.609 | M -0.164 | Q -0.158 | R -0.457 | D -0.428 | L -0.076 | G -0.192 | S -0.153 | W -0.651 | N -0.304 | C -0.426 | H -0.617 | V -0.36 | A -0.475 | E -0.368 | K 0.397
D20: K -0.683 | G -0.125 | C 0.014 | P -0.162 | H 0.904 | Q 0.093 | A -0.198 | E 0.757 | Y 0.142 | S -0.528 | V -0.578 | W -0.7 | M 0.06 | I -0.375 | N -0.703 | L -0.071
I29: E -0.392 | R -0.427 | N -0.119 | H -0.595 | W 0.005 | L -0.454 | Q -0.783 | A -0.53 | S -0.374 | M -0.686 | C -0.497 | T -0.497 | G -0.365 | P 0.271 | D -0.41 | V -0.795
P18: D 0.315 | Q -0.83 | H -0.537 | M -0.235 | T -0.599 | F -0.634 | V -0.648 | G -0.613 | W -0.711 | E -0.48 | C -0.691 | A -0.284 | S -0.587 | K -0.558 | L -0.801 | I -0.651 | R -0.163 | N -0.074
Q24: C -0.197 | P -0.727 | T -0.257 | I -0.688 | V -0.279 | F -0.224 | D 0.235 | M -0.311 | L -0.535 | K 0.047 | G -0.805 | A -0.186 | W -0.14 | Y -0.44 | H -0.035 | S 0.286 | N -0.002 | R -0.234
L30: G -0.2 | Q 0.5 | T 1.05 | D 0.169 | R 0.552 | H 0.448 | K 0.491 | M 0.08 | I 0.032 | W -0.513 | F -0.147 | V -0.07 | Y 0.079 | P 0.04 | N 0.756 | E 0.042 | S 0.469 | A -0.284
A15: P -0.005 | T -1.03 | Y -0.617 | I -0.357 | L -0.827 | H -0.954 | S 0.051 | R -0.417 | N -0.853 | W -0.48
F23: P -0.848 | M -0.098 | A -0.333 | I -0.374 | K -0.048 | C -0.218 | N -0.381 | R -0.223 | S -0.655 | Y -0.517 | W -0.889 | D -0.527 | G -0.198 | H -0.117 | T -0.772 | Q 0.047 | E -0.023 | V -0.568
E22: D -0.602 | F -0.55 | V -0.389 | K -0.473 | Y -0.565 | N -0.654 | C -0.627 | H -0.191 | W -0.787 | S 0.284 | P -0.225 | R -0.368 | A 0.103 | T -0.24 | Q 0.395 | I -0.795 | L -0.256
V35: A -0.074 | G -0.613 | C -0.475 | D -0.588 | E -1.04 | F -0.264
E19: W -0.166 | T -0.055 | S -0.229 | D -0.501 | G 0.598 | K -0.723 | Q -0.216 | L 0.006 | C -0.112 | I -0.305 | P -1.06 | N 0.156 | A -0.172 | V -0.443 | F -0.676 | H -0.096 | M -0.463 | R -0.295
V31: P -0.046 | K -0.621 | R -0.581 | Y -0.479 | W -0.6 | H -0.369 | C -0.418 | T -0.482 | N -0.092 | I 0.342 | F -0.354 | G 0.001 | L 0.041
I28: T 0.163 | A -0.179 | M -0.065 | N 0.043 | P 0.054 | Q 0.146 | L -0.284 | F -0.443 | R 0.338 | H 0.116 | C -0.546 | W 0.025 | V -0.264 | D 0.056 | Y -0.546 | S 0.096 | K 0.638 | G -0.245
L21: P -0.529 | W -0.457 | D -0.323 | A -0.565 | Y -0.721 | C -0.585 | R -0.67 | N -0.538 | V -0.225 | S -0.522 | I -0.184 | H -0.483 | T -0.392 | M -0.509 | G -0.369
Q17: V -0.643 | H -0.123 | A 0.324 | M -0.27 | L -0.266 | T 0.2 | F -0.793 | C 0.148 | P -1.03 | E -0.504 | K 0.796 | W -0.753 | N -0.093 | Y -0.09 | R 0.296 | G 0.478 | I -0.393 | S 0.615
